Consider 2 molecules from US20060019335A1, “Compositions and methods to promote c-IAP autodegradation” (priority 2004, published 2006).

One assay has as its target T1, c-IAP2 (Homo sapiens, UniProt Q13489).
T1 construct: produced not only the expected full length c-IAP1 or c-IAP2; expressed in transfected cells; host or cells: HeLa
The experiment in a line: In vitro ubiquitylation assay of c-IAP2. The settings on record: data not shown. The class given is biochemical. As for the experimental part: (§1) In vitro ubiquitylation assays—In vitro ubiquitylation assays were carried out as previously described (29). IAP proteins (200 nM) were incubated with or without Smac polypeptide for 2 hours at 30° C. in a reaction system containing 50 mM Tris-HCl (pH 7.5), 50 mM NaCl, 2 mM Mg-ATP, 20 μM mammalian ubiquitin, 100 nM rabbit ubiquitin-activating enzyme (E1) and 400 nM of recombinant human ubiquitin-conjugating enzymes (E2). The reactions were stopped by adding equal volumes of 2×SDS sample loading buffer followed by Western Blot analysis.
The observation that Smac promotes c-IAP1 auto-ubiquitylation in HeLa cells was further confirmed in vitro by using UbCH6 as the E2.

Another assay deals with XIAP (Homo sapiens, UniProt P98170). Kind of assay: In vitro ubiquitylation assay of purified XIAP. The class given is biochemical. As for the experimental part:
as §1
To determine whether Smac promotes auto-ubiquitylation of XIAP, purified XIAP (without tag) was incubated for 2 hours at 30° C. either with or without different concentrations of Smac or with Smac ΔA in the reconstituted ubiquitylation reaction system (Ub Mix) consisting of 50 mM Tris-HCl (pH 7.5), 50 mM NaCl, 2 mM Mg-ATP, 20 μM mammalian ubiquitin, 100 nM rabbit ubiquitin-activating enzyme (E1) and 400 nM UbCH6 (E2). The reactions were stopped by adding equal volumes of 2×SDS sample loading buffer and the products were subjected to SDS-PAGE followed by immunoblotting with anti-XIAP antibody. The purified XIAP was active in directing poly-ubiquitylation. But the auto-ubiquitylation of XIAP was not enhanced by Smac.

For the next assay, the target named is T2, Livin β (Homo sapiens, UniProt Q96CA5).
T2 construct: expressed in transfected cells; host or cells: HeLa
T2 sequence (Q96CA5 1-280 isoform Q96CA5-2): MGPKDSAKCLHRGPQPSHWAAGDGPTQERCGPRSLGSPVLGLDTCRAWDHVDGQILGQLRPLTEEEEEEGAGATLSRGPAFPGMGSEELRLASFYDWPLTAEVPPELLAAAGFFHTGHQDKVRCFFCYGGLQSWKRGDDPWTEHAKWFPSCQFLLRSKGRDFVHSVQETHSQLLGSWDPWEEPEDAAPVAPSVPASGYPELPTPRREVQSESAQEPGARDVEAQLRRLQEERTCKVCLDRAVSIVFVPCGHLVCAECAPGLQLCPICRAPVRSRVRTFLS
The experiment in a line: Co-transfection of HeLa cells with Livin β and Smac plasmids, Western blot. It is filed as cell-based. The settings on record: data not shown. The procedure:
Transfection of cultured Cells—HeLa cells were grown in DMEM supplemented with 10% fetal bovine serum. Cells were seeded onto 6-well plates the day before transfection and transfected at 70% confluence by using Lipofectin combined with Plus reagent (Invitrogen) according to the manufacture's protocols. The IAP expression plasmids (3 μg each for c-IAP1, c-IAP2 and XIAP, and 250 ng each for Livin αand Livin β) together with 2.5 μg of Smac expression plasmids or pcDNA3.1(−) blank plasmid were used for single-well transfection in the absence of antibiotics. The cells were harvested 12 hours after the transfection and lysed with 0.5% CHAPS in 20 mM HEPES (pH 7.4), 10 mM KCl, 1 mM MgCl2 and 1 mM DTT. The lysates were centrifuged and the protein concentrations of the supernatants were quantified by the modified Bradford method (36).
Western Blot analysis—Proteins were resolved by SDS-PAGE and transferred to nitrocellulose filters. The filters were blocked with 5% milk and probed with antibodies as indicated. The signals were visualized with the enhanced chemiluminescence method.
In the current study, Livin was also transiently expressed in HeLa cells to determine the ubiquitylation activity (see FIG. 3B). Briefly, Livin α WT or H269A mutant plasmids together with Smac WT or Smac ΔA mutant, or with pcDNA3.1(−) blank plasmid, were co-transfected into HeLa cells. […]
For orientation: A western blot detects proteins with antibodies after separation by electrophoresis.

XIAP, sequence (P98170 whole entry): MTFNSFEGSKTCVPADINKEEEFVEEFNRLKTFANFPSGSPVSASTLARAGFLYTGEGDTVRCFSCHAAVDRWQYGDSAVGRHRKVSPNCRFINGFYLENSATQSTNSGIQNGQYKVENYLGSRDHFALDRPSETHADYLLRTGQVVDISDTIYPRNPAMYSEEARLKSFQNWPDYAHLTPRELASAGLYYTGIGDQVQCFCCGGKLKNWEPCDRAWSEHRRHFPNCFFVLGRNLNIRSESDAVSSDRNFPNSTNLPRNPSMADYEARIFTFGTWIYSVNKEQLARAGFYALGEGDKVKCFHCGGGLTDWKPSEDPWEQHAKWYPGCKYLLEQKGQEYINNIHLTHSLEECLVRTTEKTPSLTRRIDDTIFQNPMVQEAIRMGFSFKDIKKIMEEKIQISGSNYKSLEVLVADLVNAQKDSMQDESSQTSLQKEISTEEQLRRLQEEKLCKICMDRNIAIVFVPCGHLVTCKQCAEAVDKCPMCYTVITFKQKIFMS
T1 sequence (Q13489 whole entry): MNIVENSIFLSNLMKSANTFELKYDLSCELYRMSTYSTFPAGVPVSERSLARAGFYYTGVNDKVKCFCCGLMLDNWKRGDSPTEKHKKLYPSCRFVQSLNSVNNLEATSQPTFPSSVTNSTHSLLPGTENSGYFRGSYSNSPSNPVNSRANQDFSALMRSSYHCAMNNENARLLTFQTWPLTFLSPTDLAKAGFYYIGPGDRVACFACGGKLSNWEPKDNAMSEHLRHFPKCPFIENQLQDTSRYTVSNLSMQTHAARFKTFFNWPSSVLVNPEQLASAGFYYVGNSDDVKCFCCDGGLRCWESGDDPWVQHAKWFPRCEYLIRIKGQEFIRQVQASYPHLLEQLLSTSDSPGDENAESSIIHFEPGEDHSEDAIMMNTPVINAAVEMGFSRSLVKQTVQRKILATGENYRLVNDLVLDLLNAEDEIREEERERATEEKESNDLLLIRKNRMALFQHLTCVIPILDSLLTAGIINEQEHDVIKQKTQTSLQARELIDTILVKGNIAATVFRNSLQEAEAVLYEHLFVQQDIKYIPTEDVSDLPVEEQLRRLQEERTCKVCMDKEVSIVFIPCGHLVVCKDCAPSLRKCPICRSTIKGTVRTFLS

B1: Smac ΔA: Smac mutant lacking the initial Ala (Ala deletion mutant polypeptide), used as negative control (protein, UniProt Q9NR28 22-239, looked up, variant A1*)
Diablo IAP-binding …: LCVPVVANFKKRCFSELIRPWHKTVTIGFGVTLCVPIAQKSEPHSLSSEALMRRAVSLVTDSTSTFLSQTTYALIEAITEYTKAVYTLTSLYRQYTSLLGKMNSEEEDEVWQVIIGARAEMTSKHQEYLKLETTWMTAVGLSEMAAEAAYQTGADQASITARNHIQLVKLQVEEVHQLSRKAETKLAEAQIEELRQKTQEEGEERAESEQEAYLRED
Consider B1, for which, in the assay with c-IAP2, the “c-IAP2 auto-ubiquitylation in vitro” value was “did not promote the E3 activity”.

B2: Smac: wild type (WT) Smac polypeptide from Homo sapiens, SEQ ID NO 1, 239 amino acids; second mitochondria-derived activator of caspase (protein, listed as Homo sapiens)
chain: MAALKSWLSRSVTSFFRYRQCLCVPVVANFKKRCFSELIRPWHKTVTIGFGVTLCAVPIAQKSEPHSLSSEALMRRAVSLVTDSTSTFLSQTTYALIEAITEYTKAVYTLTSLYRQYTSLLGKMNSEEEDEVWQVIIGARAEMTSKHQEYLKLETTWMTAVGLSEMAAEAAYQTGADQASITARNHIQLVKLQVEEVHQLSRKAETKLAEAQIEELRQKTQEEGEERAESEQEAYLRED
On to B2, for which the “amount of ubiquitylated forms of XIAP with a high molecular weight of ~150 kDa” value with XIAP (UbCH6 as E2, FIG. 6) was “slightly reduced”. In the assay with XIAP (purified XIAP without tag, UbCH6 as E2, 2 hours at 30° C., FIG. 6), the “auto-ubiquitylation of XIAP in vitro” value is “not enhanced”. The “transfection results of Livin β (auto-ubiquitylation, degradation)” value in the assay with Livin β is given as “substantially similar to that of Livin α”.
